For the experiment, the target named is T1, InvF (tag-free, purified) (S. Typhimurium, UniProt P69343 1-216).
T1 sequence: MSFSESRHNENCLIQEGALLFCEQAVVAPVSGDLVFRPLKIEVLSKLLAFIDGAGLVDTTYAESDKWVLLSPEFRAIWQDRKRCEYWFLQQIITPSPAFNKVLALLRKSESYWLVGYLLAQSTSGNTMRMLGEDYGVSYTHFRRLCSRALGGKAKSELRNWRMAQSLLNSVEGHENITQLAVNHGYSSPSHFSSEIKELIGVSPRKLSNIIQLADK
Briefly: ITC. The following applies: both partners purified.

B1: SicA (tag-free, purified) (natural protein)
chain: MDYQNNVSEERVAEMIWDAVSEGATLKDVHGIPQDMMDGLYAHAYEFYNQGRLDEAETFFRFLCIYDFYNPDYTMGLAAVCQLKKQFQKACDLYAVAFTLLKNDYRPVFFTGQCQLLMRKAAKARQCFELVNERTEDESLRAKALVYLEALKTAETEQHSEQEKE
notes: also called wild-type SicA
Turning to B1, the binding result is listed as “binds”.

These data come from publication PMC9637222 (Nature Communications, 2022).
